# Data as given in the supplement of paper PMC7877785.
# ± gives the uncertainty stated by the source.
# Assay: self-splicing fitness, log relative to wild type (ln ratio); higher = more splicing; Tetrahymena group I intron in knt gene, E. coli kanamycin selection, DiMSum; sequences stand for … in CUCUCU…GGAGGGAAAAGUUAUCAGGCAUGCACCUGGUAGCUAGUCUUUAAACCAAUAGAUUGCAUCGGUUUAAAAGGCAAGACCGUCAAAUUGCGGGAAAGGGGUCAACAGCCGUUCAGUACCAAGUCUCAGGGGAAACUUUGAGAUGGCCUUGCAAAGGGUAUGGUAAUAAGCUGACGGACAUGGUCCUAACCACGCAGCCAAGUCCUAAGUCAACAGAUCUUCUGUUGAUAUGGAUGCAGUUCACAGACUAAAUGUCGGUCGGGGAAGAUGUAUUCUUCUCAUAAGAUAUAGUCGGACCUCUCCUUAAUGGGAGCUAGCGGAUGAAGUGAUGCAACACUGGAGCCGCUGGGAACUAAUUUGUAUGCGAAAGUAUAUUGAUUAGUUUUGGAGUACUCGUGGUCG
# Outline: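 Six replicate transformations of E. coli BL21(DE3) with a pET-22b(+) library were grown overnight at 37°C or 30°C. The library randomised all eight P1ex-region intron nucleotides, the intron lying in the knt kanamycin-resistance gene, and plates were LB agar with or without 25 μg/mL kanamycin plus 100 μg/mL carbenicillin, 50 μM IPTG and 0.2% rhamnose. Pooled colonies were amplicon-sequenced on an Illumina HiSeq 2500, and fitness is the DiMSum error-weighted combination of wild-type-normalised replicate fold changes, kanamycin versus none.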
Sequence,self-splicing fitness (ln) (30 °C),self-splicing fitness (ln) (37 °C)
CGGCAGCAAUAUUACGGCCA,-0.0175 ± 0.12,0.462 ± 0.16
UUCCAGCAAUAUUACGUCCC,-2 ± 0.33,-1.84 ± 0.3
AUCGAGCAAUAUUACGAGCA,-1.2 ± 0.12,-0.963 ± 0.14
CCAGAGCAAUAUUACGCGGU,-3.94 ± 0.23,-3.14 ± 0.33
CACUAGCAAUAUUACGCAAU,-1.48 ± 0.15,-3.09 ± 0.35
UGGCAGCAAUAUUACGUAGU,-2.99 ± 0.15,-1.8 ± 0.2
GCAGAGCAAUAUUACGUGCA,-3.08 ± 0.29,-2.21 ± 0.23
GUAGAGCAAUAUUACGAGGU,-1.12 ± 0.16,-1.33 ± 0.32
GAACAGCAAUAUUACGCAGU,-3.37 ± 0.11,-2.5 ± 0.13
UUAAAGCAAUAUUACGUCAU,-1.94 ± 0.18,-0.671 ± 0.17
AAUAAGCAAUAUUACGACUU,-0.182 ± 0.065,0.451 ± 0.094
CUCAAGCAAUAUUACGCGGA,-3.12 ± 0.25,-4.56 ± 0.31
ACAGAGCAAUAUUACGCCGG,-2.81 ± 0.25,-2.4 ± 0.33
UCCUAGCAAUAUUACGCGGC,-3.42 ± 0.44,–
CUCUAGCAAUAUUACGAAUC,–,-3.69 ± 0.39
GCCUAGCAAUAUUACGUGAG,-1.21 ± 0.085,-0.757 ± 0.091
AGUGAGCAAUAUUACGAUUC,-2.97 ± 0.28,-1.27 ± 0.33
GCGGAGCAAUAUUACGGGAA,-2.13 ± 0.27,-2.23 ± 0.35
UAAAAGCAAUAUUACGACUA,0.337 ± 0.089,0.733 ± 0.12
GUGGAGCAAUAUUACGGGUA,-2.09 ± 0.31,-2.4 ± 0.45
GGGGAGCAAUAUUACGUUAC,-3.54 ± 0.38,-1.07 ± 0.26
AUGGAGCAAUAUUACGCUCA,-1.46 ± 0.17,-1.17 ± 0.18
ACGUAGCAAUAUUACGGACA,-1.1 ± 0.083,-0.739 ± 0.092
GCGCAGCAAUAUUACGGCCC,-1.21 ± 0.14,0.349 ± 0.24
AACUAGCAAUAUUACGUGCU,-2.24 ± 0.083,-1.97 ± 0.12
UGCAAGCAAUAUUACGCGGC,-2.85 ± 0.17,-2.3 ± 0.2

Sequence,self-splicing fitness (ln) (30 °C),self-splicing fitness (ln) (37 °C)
UAUAAGCAAUAUUACGACUA,0.0842 ± 0.075,0.29 ± 0.094
AUUUAGCAAUAUUACGUCAC,-3.2 ± 0.37,-1.42 ± 0.32
CAGAAGCAAUAUUACGCGGA,-3.15 ± 0.15,-3.11 ± 0.17
UGCUAGCAAUAUUACGGGAU,-3.68 ± 0.19,-1.76 ± 0.14
GUAUAGCAAUAUUACGGCCG,-2.76 ± 0.21,-1.09 ± 0.17
CAUUAGCAAUAUUACGACUU,-1.99 ± 0.16,-1.71 ± 0.18
CCUUAGCAAUAUUACGGGUA,-2.65 ± 0.19,-2.38 ± 0.26
CAAAAGCAAUAUUACGUGAG,-1.06 ± 0.04,-0.328 ± 0.069
UCUAAGCAAUAUUACGCAGA,–,-0.999 ± 0.21
UUCAAGCAAUAUUACGUAUG,-3.21 ± 0.22,-1.64 ± 0.17
CGACAGCAAUAUUACGACUU,-1.1 ± 0.059,-0.881 ± 0.066
UGUUAGCAAUAUUACGGGAU,-1.94 ± 0.23,–
GUGUAGCAAUAUUACGAACU,-1.57 ± 0.25,-0.299 ± 0.2
UUCGAGCAAUAUUACGGCGC,-2.99 ± 0.34,-2.36 ± 0.39
CAUGAGCAAUAUUACGGUCC,-3.81 ± 0.37,–
ACGGAGCAAUAUUACGUAUA,-2.42 ± 0.18,-1.86 ± 0.25
AAUGAGCAAUAUUACGACAU,-1.33 ± 0.014,-0.714 ± 0.033
GAUAAGCAAUAUUACGGCGA,-0.337 ± 0.12,0.114 ± 0.13
GGAGAGCAAUAUUACGUAGC,–,-0.906 ± 0.37
AGCCAGCAAUAUUACGCUAU,-1.55 ± 0.12,-0.833 ± 0.13
GCCUAGCAAUAUUACGAAGC,-2.24 ± 0.13,-2.15 ± 0.19
GAGUAGCAAUAUUACGGUAC,-2.69 ± 0.37,-2.01 ± 0.33
CAGUAGCAAUAUUACGUCAC,-2 ± 0.25,–
AAUUAGCAAUAUUACGCUCA,-0.656 ± 0.12,-0.204 ± 0.16
UUAUAGCAAUAUUACGGUCU,-3.22 ± 0.25,-1.28 ± 0.22
CUCAAGCAAUAUUACGCGAA,–,-1.79 ± 0.22

Sequence,self-splicing fitness (ln) (30 °C),self-splicing fitness (ln) (37 °C)
CCUGAGCAAUAUUACGAAAU,-3.15 ± 0.29,-0.975 ± 0.19
CGGUAGCAAUAUUACGCGCA,-1.16 ± 0.14,-0.13 ± 0.15
CAAGAGCAAUAUUACGCGGU,-3.05 ± 0.17,-1.81 ± 0.21
UUUAAGCAAUAUUACGAGAU,-3.92 ± 0.26,-0.782 ± 0.16
GACGAGCAAUAUUACGGCCA,–,0.241 ± 0.29
GACCAGCAAUAUUACGGUUG,-0.661 ± 0.053,-0.341 ± 0.062
UUUGAGCAAUAUUACGAACC,-2.5 ± 0.35,–
AUCGAGCAAUAUUACGCGUA,-1.93 ± 0.17,-1.01 ± 0.14
UCCCAGCAAUAUUACGCGCU,-4.15 ± 0.33,-2.84 ± 0.34
UGUAAGCAAUAUUACGACAA,-0.378 ± 0.16,-0.666 ± 0.14
CCAAAGCAAUAUUACGCAUG,-1.22 ± 0.063,-0.772 ± 0.084
ACGUAGCAAUAUUACGGGAA,-1.95 ± 0.2,-3.19 ± 0.37
CCGUAGCAAUAUUACGUUGG,-4.39 ± 0.27,-3.1 ± 0.19
GCGCAGCAAUAUUACGUGUU,-1.06 ± 0.075,-0.857 ± 0.092
ACAGAGCAAUAUUACGGCGG,-3.41 ± 0.26,-1.98 ± 0.24
AAGAAGCAAUAUUACGUUUG,-2.45 ± 0.12,-2.26 ± 0.18
GCCUAGCAAUAUUACGACGU,-0.19 ± 0.058,0.0659 ± 0.07
GAGUAGCAAUAUUACGCCGG,-1.99 ± 0.35,–
CCGUAGCAAUAUUACGUCGA,-1.93 ± 0.14,-1.57 ± 0.13
GGCGAGCAAUAUUACGUCCA,-1.97 ± 0.14,-1.02 ± 0.12
AAAGAGCAAUAUUACGUCCU,-1.93 ± 0.13,-0.831 ± 0.12
UUUAAGCAAUAUUACGACAG,-0.664 ± 0.15,-0.475 ± 0.2
UCGUAGCAAUAUUACGUUUA,-1.5 ± 0.085,-0.934 ± 0.08
UGGUAGCAAUAUUACGCCCU,-0.668 ± 0.16,0.287 ± 0.16
UUAGAGCAAUAUUACGCGGA,-1.29 ± 0.1,-0.00507 ± 0.11
UAACAGCAAUAUUACGUAAC,-2.93 ± 0.17,-1.62 ± 0.16
